{"source": "patent US20240218057A1", "about": "(ROCKEFELLER UNIVERSITY, published 2024)", "binders": {"B1": {"name": "C1008 (antibody, V domains shown)", "VH": "EVQLVESGGGLIQPGGSLRLSCAASGFTVSSNYMSWVRQAPGKGLEWVSVIYSGGSTYYADSVKGRFTISRDNSKNTLYLQMNSLRAEDTAVYYCARVVGYDFWSGYDGGYFDYWGQGTLVTVSS", "VL": "QSALTQPASVSGSPGQSITISCTGTSSDVGSYNLVSWYQQHPGKAPKLMIYEVSKRPSGVSNRFSGSKSGNTASLTISGLQAEDEADYYCCSYAGSSTWVFGGGTKLTVL"}, "B2": {"name": "C1009 (antibody, V domains shown)", "VH": "EVQLVESGGGLLQPGGSLRLSCAASGFSVSSNYMTWVRQAPGKGLEWVAAIYSGDSTYYVDSVKGRFIISRDNSKNTVYLHLSSLRAEDTAVYYCARLVGYDFRSGSDGGYFDYWGHGTLVTVSS", "VL": "B1 VL with V29I, S31N, E52D, A86T"}, "B3": {"name": "C1000 (antibody, V domains shown)", "VH": "QVQLQESGPGLVKPSQTLSLSCTVSGGSISSDDYYWSWIRQPPGKGLEWIGYIYYSGSTYYNSSLKSRVSISVDTSKNQFSLKLSSVTAADTAVYYCARWKRWLQFLYFDYWGQGTLVTVSS", "VL": "QSALTQPRSVSGSPGQSVTISCTGTSSDVGGYSFVSWYQQHPGKAPKVLIYDVDKRPSGVPDRLSGSKSGNTASLTISGLQAEDEADYYCCSYAGSYTLIFGGGTKLTVL"}, "B4": {"name": "C1002 (antibody, V domains shown)", "VH": "EVQLVESGGGLVQPGGSLRLSCAASEFIVSSNYMTWVRQAPGKGLEWVSIMYPGGSTFYADSVKGRFTISRDNSKNTLYLQINRLRAEDTAVYYCARDIAGRLDYWGQGTLVTVSS", "VL": "DIQMTQSPSSLSASVGDRVTITCQASQDINNYLNWYQQKPGKAPKLLIYDASNLETGVPSRFSGSGSGTDFSFTISSLQPEDIATYYCQQYDNLSRLTFGGGTKVEIK"}, "B5": {"name": "C999 (antibody, V domains shown)", "VH": "QVQLVQSGAEVRRPGASVKVSCKASGYTLTHYYIHWVRQAPGQGLEWVGIINPDGDNTNYAQKFQGRVTMTRDTSTSTVYMELSSLRSEDTAIFYCARGGAIPALRSAFDIWGQGTMVTVSS", "VL": "DIQMTQSPSTLSASVGDRVTITCRASQSINNWLAWYQQKPGKAPKLLIYKASTLESGVPSRFSGSGSGTEFTLTISSLQPDDFATYYCQQYNSYFFGQGTKLEIK"}, "B6": {"name": "C1003 (antibody, V domains shown)", "VH": "QVQLVESGGGVVQPGRSLRLSCAASGFAFSSYGMNWVRQAPGKGLEWVTTVSSDGNVNYYIDSVKGRFTISRDNSKNTLYLQMNSLRGDDTAVYYCAKGPRFGWSYRGGSGFDIWGQGTMVTVSS", "VL": "DIQMTQSPSSLSASVGDRVTITCQASQDISNYLNWYQQKPGKAPKLLIYDASNLETGVPSRFSGSGSGTDFTFTITSLQPEDIATYYCQQYDNLPITFGQGTRLEIK"}, "B7": {"name": "C1001 (antibody, V domains shown)", "VH": "QVQLQESGPGLVKPSQTLSLTCTVSGGSISSGDYYWTWIRQPPGKGLEWIGYIFYSGITYYSPSLKSRLTMSIDTSKSQFSLNLSSVTAADTAVYYCARWKRLLQSLHFDYWGQGILVTVSS", "VL": "QSALTQPRSVSGSPGQSVTISCTGTSSDVGSYDYVSWYQQHPGKAPKVMIYGVDERPSGVPHRFSGSKSGNTASLTISGLQADDEADYFCCFYAGSYTLLFGGGTKVTVL"}, "B8": {"name": "C1006 (antibody, V domains shown)", "VH": "QVQLVQSGAEVRKPGSSVKVSCKASGGPFDQYTFSWVRQAPGQGLEWMARITPVVDLTNYAQKFQGRITIITDKSTSTAYMELSSLRSEDTAIYYCATPLNDYYASGNLGLWGQGTLVTVSS", "VL": "DIQMTQSPSSLSASIGDRVTITCRASQGISYYLAWFQQKPGEAPRSLIYDASSLQSGVPSKFSGSGSGTDFTLTISSLQPEDSATYYCQQYNSYPLTFGGGTKVEIK"}, "B9": {"name": "C1007 (antibody, V domains shown)", "VH": "QVQLVQSGSEMKKPGSSVKVSCKAAGGTLNTHTFSWVRQAPGQGLEWMGRITPTVDLTNYAQKFQGRITITADTSTNTAYLELRRLRSEDTAIYYCATPLNDYYASGNLGLWGQGTLVTVSS", "VL": "B8 VL with R18T, Q38R, E42K, R45K, N92S, S93T"}}, "note": "Substitutions are numbered along the chain they refer to."}
{"molecular_target": "T1, SARS-COV-2 RBD (SARS-COV-2, UniProt P0DTC2 319-539)", "T1 construct": "also called WT RBD", "test": "ELISA, RBD coated on plate", "units": {"EC50": "ng/mL"}}
{"binder": "B1", "EC50": 17.2}
{"binder": "B2", "EC50": 1.34}
{"binder": "B3", "EC50": 3.2}
{"binder": "B4", "EC50": 0.83}
{"binder": "B5", "EC50": 2.68}
{"binder": "B6", "EC50": 1.82}
{"binder": "B7", "EC50": 3.23}
{"binder": "B8", "EC50": 2.04}
{"binder": "B9", "EC50": 3.22}
